Experimental data as given in the supplement of paper PMC10567573.

B1: KLHL12 (parent)
chain: LDYTADEDGVWYSVAPMNVRRGLA

Variants of: B1
Test: protein stability index of a GFP-peptide fusion (GPS, HEK-293T) (PSI 1-6); higher = more stable
Details: c terminus: a fixed tail appended
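Also: lentivirally expressed fusions sorted by FACS into six bins by GFP to DsRed ratio, PSI derived from sequencing read proportions per bin multiplied by bin number.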

Protein stability index, by site and new letter:
S13: M 1.92 | G 2.69 | C 1.97 | R 1.94 | E 2.77 | V 2.28 | Y 2.21 | Q 2.06 | W 1.37 | I 1.43 | F 2.6 | P 2.57 | D 3.34 | T 1.92 | H 3.65 | K 2.29 | N 2.13 | L 1.89 | A 1.71
A15: Y 2.04 | W 1.57 | H 1.7 | E 2.29 | L 2.08 | D 2.32 | V 1.76 | I 1.76 | K 2.13 | Q 2.24 | N 2.33 | F 1.82 | G 2.06 | R 2.19 | M 1.76 | T 2.04 | S 1.83 | P 2.76 | C 1.74
V19: T 1.91 | Q 2.49 | E 1.86 | C 1.7 | S 2.62 | R 2.61 | N 2.72 | G 1.95 | W 1.66 | F 1.78 | H 2.98 | K 2.65 | M 1.52 | Y 1.78 | D 2.32 | L 2.22 | I 2.42 | P 2.11 | A 1.93
V14: D 3.79 | Y 2.83 | C 2.5 | I 1.67 | P 2.63 | S 2.96 | A 2.76 | L 1.82 | H 3.39 | F 2.18 | K 4.17 | N 2.83 | G 2.83 | E 3.61 | W 2 | M 2.33 | Q 3.31 | T 3 | R 3.33
W11: Y 2.39 | S 3.62 | T 2.99 | R 2.8 | V 3.62
R20: L 2.26 | E 3.32 | I 1.98 | A 2.1 | M 2.4 | C 1.54 | G 1.72 | D 2.65 | K 1.89 | F 1.7 | H 1.75
N18: S 2.01 | W 2.37 | H 1.95 | I 2.47 | V 2.35 | A 1.92 | D 2.2 | K 1.54 | L 1.97 | F 2.19 | C 1.35 | G 2.54 | Y 2.24 | T 1.77 | E 1.83 | P 2.57 | Q 1.58 | M 1.46
M17: L 1.74 | H 2.41 | W 1.89 | E 2.59 | P 2.58 | R 3.34 | T 2.48 | S 2.64 | K 2.71 | N 2.54 | I 3.28 | D 2.47 | C 2.01 | A 2.45 | G 2.28 | Q 2.46 | Y 1.86 | F 1.55 | V 2.59
P16: E 3.28 | Q 2.16 | D 3.07 | W 1.59 | K 1.95 | M 1.88 | H 2.57 | Y 2.56 | C 1.72 | F 1.84 | G 2.08 | R 2.25 | S 1.79 | V 1.85 | L 2.41 | I 1.79 | T 2.62 | N 2.24 | A 2.33
Y12: M 2.36 | L 2.02 | A 3.55 | H 3.24 | I 1.89 | F 2.23 | W 2.3 | V 2.32 | C 3.07 | K 3.63 | S 3.12 | E 4.04 | G 2.84 | T 3.12 | Q 3.61 | N 3.45 | D 3.74 | R 3.37 | P 3.52
